Residue numbers refer to the chain shown, from its start. Names and notes keep the numbering of the source.
Experiments:
[1] = target: T1, hTRMT2A FL (WT) (Homo sapiens, UniProt Q8IZ69 1-625); experiment: EMSA; low nM KD range; poly(U) competitor; EMSA: 50 mM HEPES-NaOH pH 7.5, 150 mM NaCl, 4% glycerol, 2.5 ng/ul poly(U), 5 nM RNA, 0-1.25 uM protein (final, as stated), 20 min room temperature; SPR: 150 mM NaCl, 50 mM HEPES-NaOH 7.5, 0.05% Tween, 25 C; conditions: protein: recombinant; tags: N-terminal His-SUMO tag cleaved; label: 5'-32P; tRNA cloverleaf
T1 sequence: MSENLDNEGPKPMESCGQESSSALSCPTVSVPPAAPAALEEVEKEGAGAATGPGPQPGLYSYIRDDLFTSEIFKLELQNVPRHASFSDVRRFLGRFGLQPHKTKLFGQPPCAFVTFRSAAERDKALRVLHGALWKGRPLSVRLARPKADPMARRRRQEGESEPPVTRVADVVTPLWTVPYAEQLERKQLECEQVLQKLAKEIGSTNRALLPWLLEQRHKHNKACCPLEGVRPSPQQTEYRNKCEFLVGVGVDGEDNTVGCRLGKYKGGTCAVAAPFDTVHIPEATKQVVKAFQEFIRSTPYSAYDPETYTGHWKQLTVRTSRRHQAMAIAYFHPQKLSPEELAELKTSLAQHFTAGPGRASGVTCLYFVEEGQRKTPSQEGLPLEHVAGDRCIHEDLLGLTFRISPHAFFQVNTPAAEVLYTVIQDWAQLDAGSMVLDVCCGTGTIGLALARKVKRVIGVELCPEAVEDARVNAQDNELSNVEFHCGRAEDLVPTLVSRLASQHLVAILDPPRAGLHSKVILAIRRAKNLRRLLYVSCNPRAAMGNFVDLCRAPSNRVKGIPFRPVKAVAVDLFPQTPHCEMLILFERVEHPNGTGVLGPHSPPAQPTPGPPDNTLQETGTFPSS

[2] = target: T2, hTRMT2A CDM (catalytic death mutant) (Homo sapiens, UniProt Q8IZ69 1-625, E76A;K104E;F113A;K242A;F409A;Q411A;D510A;C538A); experiment: SPR; steady-state fit, apparent KD; EMSA: 50 mM HEPES-NaOH pH 7.5, 150 mM NaCl, 4% glycerol, 2.5 ng/ul poly(U), 5 nM RNA, 0-1.25 uM protein (final, as stated), 20 min room temperature; SPR: 150 mM NaCl, 50 mM HEPES-NaOH 7.5, 0.05% Tween, 25 C; conditions: protein: recombinant; tags: N-terminal His-SUMO tag cleaved; label: 3' biotin; tRNA cloverleaf
T2 sequence: T1 sequence with E76A, K104E, F113A, K242A, F409A, Q411A, D510A, C538A

[3] = target: T1, hTRMT2A FL (WT); experiment: as above; conditions: protein: recombinant; tags: N-terminal His-SUMO tag cleaved; label: 3' biotin; tRNA cloverleaf
[4] = target: T1, hTRMT2A FL (WT); experiment: size exclusion chromatography; 1:1 mix; elution shift 17.41 to 15.46 ml; EMSA: 50 mM HEPES-NaOH pH 7.5, 150 mM NaCl, 4% glycerol, 2.5 ng/ul poly(U), 5 nM RNA, 0-1.25 uM protein (final, as stated), 20 min room temperature; SPR: 150 mM NaCl, 50 mM HEPES-NaOH 7.5, 0.05% Tween, 25 C; conditions: protein: recombinant; tags: N-terminal His-SUMO tag cleaved; tRNA cloverleaf
[5] = target: T2, hTRMT2A CDM (catalytic death mutant); experiment: EMSA; similar to WT, nM KD range, more supershifts; poly(U) competitor; EMSA: 50 mM HEPES-NaOH pH 7.5, 150 mM NaCl, 4% glycerol, 2.5 ng/ul poly(U), 5 nM RNA, 0-1.25 uM protein (final, as stated), 20 min room temperature; SPR: 150 mM NaCl, 50 mM HEPES-NaOH 7.5, 0.05% Tween, 25 C; conditions: protein: recombinant; tags: N-terminal His-SUMO tag cleaved; label: 5'-32P; tRNA cloverleaf
[6] = target: T1, hTRMT2A FL (WT); experiment: EMSA; low nM KD range; shift already at 60 nM; poly(U) competitor; EMSA: 50 mM HEPES-NaOH pH 7.5, 150 mM NaCl, 4% glycerol, 2.5 ng/ul poly(U), 5 nM RNA, 0-1.25 uM protein (final, as stated), 20 min room temperature; SPR: 150 mM NaCl, 50 mM HEPES-NaOH 7.5, 0.05% Tween, 25 C; conditions: protein: recombinant; tags: N-terminal His-SUMO tag cleaved; label: 5'-32P; tRNA cloverleaf

B1: tRNAAla-AGC (A54) (structured_RNA)
RNA: GGGGAAUUAGCUCAGGCGGUAGAGCGCUCGCUUAGCAUGCGAGAGGUAGCGGGAUCGACGCCCGCAUUCUCCA
B1: binds [1].

B2: tRNAGln-TTG, 3' biotin (structured_RNA)
RNA: GGUCCCAUGGUGUAAUGGUUAGCACUCUGGACUUUGAAUCCAGCGAUCCGAGUUCAAAUCUCGGUGGGACCUCCA
modifications: 3' biotin
B2 was tested, and the Kd [2] was 428 ± 71 nM and the Kd [3] was 306 ± 60 nM.

B3: tRNAGln-TTG, unlabeled (structured_RNA)
RNA: B2 RNA
B3: binds [4].

B4: tRNAGln-TTG (structured_RNA)
RNA: B2 RNA
B4: binds [5]; binds [6].

B5: tRNAGln U54G (structured_RNA)
RNA: B2 RNA with U53G
B5: binds [1].

— paper PMC10484741, “Human TRMT2A methylates tRNA and contributes to translation fidelity”
